Test results published in PMC8280269, “A novel mycothiol-dependent thiol–disulfide reductase in Corynebacterium glutamicum involving oxidative stress resistance” (3 Biotech, 2021).

T1: NCgl2478 (Corynebacterium glutamicum, UniProt Q8NMK6, C24S)
T1 construct: gene Cgl2567; full-length, N-terminal His6 from pET28a, E. coli BL21(DE3); tag cut with enterokinase for activity assays
T1 sequence (Q8NMK6 1-245 C24S): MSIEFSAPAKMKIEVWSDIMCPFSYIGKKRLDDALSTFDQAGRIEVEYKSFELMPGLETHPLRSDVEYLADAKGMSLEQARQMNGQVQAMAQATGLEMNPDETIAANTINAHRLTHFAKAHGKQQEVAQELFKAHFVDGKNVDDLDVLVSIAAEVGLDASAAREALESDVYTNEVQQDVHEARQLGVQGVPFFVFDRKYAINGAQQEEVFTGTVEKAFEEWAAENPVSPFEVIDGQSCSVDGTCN


What was measured:
NCgl2478 = target: T1, NCgl2478; assay: NBD-Cl labelling and DTNB thiol count after H2O2 with MSH; type: binding; details: covalent; mixed disulfide at Cys21 formed from the H2O2-oxidised sulfenic acid
Cys21 = assay: UV-vis; details: 10 °C; poly-buffer: 10 mM sodium acetate, 10 mM sodium phosphate, 10 mM sodium borate, 10 mM sodium citrate, starting pH 9.4, titrated with 100 mM HCl; 20 μM protein; reduced protein, referenced to the oxidized protein (Cys mutants oxidized with tenfold excess H2O2); no ligand
Cys24 = assay: UV-vis; details: 10 °C; poly-buffer: 10 mM sodium acetate, 10 mM sodium phosphate, 10 mM sodium borate, 10 mM sodium citrate, starting pH 9.4, titrated with 100 mM HCl; 20 μM protein; reduced protein, referenced to the oxidized protein (Cys mutants oxidized with tenfold excess H2O2); no ligand
purified protein = substrate: CC(=O)N[C@@H](CSSCCO)C(=O)N[C@H]1[C@@H](O[C@@H]2[C@H](O)[C@H](O)[C@@H](O)[C@H](O)[C@H]2O)O[C@H](CO)[C@@H](O)[C@@H]1O; assay: purified protein; type: biochemical, Corynebacterium glutamicum; details: 500 μM MSH, 5 μM Mtr, 250 μM NADPH, 50 mM potassium phosphate pH 7.6, 25 °C, substrate formed in situ from HED and MSH

Molecule	NBD-Cl labelling and DTNB thiol count after H2O2 with MSH (NCgl2478)	pKa (Cys21)	pKa (Cys24)	Km (purified protein)	kcat (purified protein)
CC(=O)N[C@@H](CS)C(=O)NC1[C@@H](O[C@@H]2[C@H](O)[C@H](O)[C@@H](O)[C@H](O)[C@H]2O)O[C@H](CO)[C@@H](O)[C@@H]1O (stereo partly drawn) [MSH, 1D-myo-inosityl-2-[N-acetyl-L-cysteinyl] amido-2-deoxy-α-D-glucopyranoside]	MSH reacted with NCgl2478:C24S–SOH to form NCgl2478:C24S–SSM	–	–	–	–
NCgl2478 (DsbA-like mycoredoxin / mycothiol-dependent thiol-disulfide reductase, annotated dithiol-disulfide isomerase DsbA) (Corynebacterium glutamicum (RES167, derived from ATCC 13032))	–	less than 6	8.09	–	–
Mrx1 (Corynebacterium glutamicum ATCC 13032) (protein, pET28a-mrx1, N-terminal His6, E. coli BL21(DE3); tag cut for activity assays) MSNVTIYATDWCPYCRSLLKGLDGQEYDLIDVDQDEEAGEWVKSVNDGNRIVPTVRYSDGTHATNPLAAEVIAKIEALA	–	–	–	540 ± 110 µM	103.81 ± 3.14 s⁻¹
NCgl2478 (Corynebacterium glutamicum ATCC 13032) (protein, full-length, N-terminal His6 from pET28a, E. coli BL21(DE3); tag cut with enterokinase for activity assays) MSIEFSAPAKMKIEVWSDIMCPFCYIGKKRLDDALSTFDQAGRIEVEYKSFELMPGLETHPLRSDVEYLADAKGMSLEQARQMNGQVQAMAQATGLEMNPDETIAANTINAHRLTHFAKAHGKQQEVAQELFKAHFVDGKNVDDLDVLVSIAAEVGLDASAAREALESDVYTNEVQQDVHEARQLGVQGVPFFVFDRKYAINGAQQEEVFTGTVEKAFEEWAAENPVSPFEVIDGQSCSVDGTCN	–	–	–	510 ± 50 µM	8.55 ± 0.19 s⁻¹
NCgl2478 (Corynebacterium glutamicum ATCC 13032; C24S) (protein, full-length, N-terminal His6 from pET28a, E. coli BL21(DE3); tag cut with enterokinase for activity assays) MSIEFSAPAKMKIEVWSDIMCPFSYIGKKRLDDALSTFDQAGRIEVEYKSFELMPGLETHPLRSDVEYLADAKGMSLEQARQMNGQVQAMAQATGLEMNPDETIAANTINAHRLTHFAKAHGKQQEVAQELFKAHFVDGKNVDDLDVLVSIAAEVGLDASAAREALESDVYTNEVQQDVHEARQLGVQGVPFFVFDRKYAINGAQQEEVFTGTVEKAFEEWAAENPVSPFEVIDGQSCSVDGTCN	–	–	–	460 ± 50 µM	11.37 ± 0.31 s⁻¹
